Assay [1] concerns the target T1, hSIRPαV1D1 with histidine tag (human, UniProt P78324 31-147).
T1 construct: analyte of the Biacore experiments; also called first immunoglobulin-like domain of human SIRPα variant V1; not shown: histidine tag
The assay is described as follows: SPR (Biacore 3000), IgG captured on anti-human IgG, His-tagged D1 analyte. The text has this: (§1) Goat anti-human IgG capture antibody (Jackson Laboratories; 109-005-098) was immobilized on the four flow cells in each sensor chip using standard amine coupling chemistry. About 8000 resonance units (RU) of this antibody was immobilized on each flow cell. Flow cells 2, 3, and 4 were used to analyze captured anti-SIRPα antibodies (about 250 to 300 RU were captured on each of flow cells 2, 3, and 4), while flow cell 1 was used as the reference flow cell. The analytes tested were hSIRPαV1D1, hSIRPαV2D1, cynomolgus monkey SIRPαV1D1 (cSIRPαV1D1), cSIRPαV2D1, hSIRPβ1D1, and hSIRPγD1, each of which also included a histidine tag. The sequences of cSIRPαV1D1 and cSIRPαV2D2 are provided in SEQ ID NOs: 143 and 142, respectively. To avoid confusion, the differences between the amino acid sequences of cSIRPαV1D1 and cSIRPαV2D1 are not the same as the differences between the amino acid sequences of hSIRPαV1D1 and hSIRPαV2D1. […] The amino acid sequence of hSIRPβ1D1 can be found in amino acids 30-148 of SEQ ID NO: 144, and the amino acid sequence of hSIRPγD1 can be found in amino acids 31-149 of SEQ ID NO: 141.
(§2) Generally, concentrations from about 0.1×KD to about 10×KD are appropriate for kinetic analysis. From one to six different concentrations were evaluated for each antibody:analyte interaction, depending on the comparisons to be made in an individual experiment. All analyte dilutions were prepared in HPS-EP buffer. Multiple blank (running buffer) injections were run and used to assess and subtract system artifacts. The association phase and dissociation phase for all analyte concentrations were monitored for 180 seconds and 300 seconds, respectively, at a flow rate of 50 μL/min. Between antibody samples, the surfaces of the flow cells were regenerated with 10 mM glycine, pH 1.5 using two injections, each lasting 12 seconds at a flow rate of 50 μL/min.
(§3) The data were analyzed using BIAevaluation software (Biacore, General Electric (GE)). The data was fit using the 1:1 Langmuir model.

Assay [2] deals with T2, hSIRPαV2D1 with histidine tag (human).
T2 construct: analyte of the Biacore experiments; also called first immunoglobulin-like domain of human SIRPα variant V2; not shown: histidine tag
The description is as above.
Source text: as §1, §2, §3

For assay [3], the target named is T3, cSIRPαV1D1 with histidine tag (cynomolgus monkey (Macaca fascicularis), UniProt Q5TFQ8 30-146 (human entry)).
T3 construct: also called cynomolgus monkey SIRPαV1D1; not shown: histidine tag
T3 chain: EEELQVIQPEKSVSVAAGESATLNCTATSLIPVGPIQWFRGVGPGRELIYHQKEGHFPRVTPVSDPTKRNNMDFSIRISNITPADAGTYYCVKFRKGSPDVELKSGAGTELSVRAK
The description is as above.
Source text: as §1, §2, §3

Assay [4] concerns the target T4, hSIRPβ1D1 with histidine tag (human, UniProt O00241 30-148).
T4 construct: analyte of the Biacore experiments; also called hSIRPβD1; not shown: histidine tag
The assay is described as above.
Source text: as §1, §2, §3

The target of assay [5] is T5, hSIRPγD1 with histidine tag (human, UniProt Q9P1W8 31-149).
T5 construct: also called first immunoglobulin-like domain of human SIRP Gamma; not shown: histidine tag
The assay is described as above.
Source text: as §1, §2, §3

Assay [6] concerns the target T6, hSIRPαV2 expressed on the cell surface (human, UniProt P78324 31-504).
T6 construct: whole, on cells; also called human SIRPα variant V2
The assay is described as follows: flow cytometry on primary human monocytes (FSC/SSC gate) in PBMCs expressing only SIRPαV2, antibody detected with APC-(Fab)2 goat anti-human IgG Fc (MFI at about 670 nm). The procedure: FIG. 6: Binding of anti-SIRPα antibodies to T cells and monocytes. Methods are described in Example 4. […] The x axes show the antibody concentration in μg/ml. The y axes show mean fluorescence intensity (MFI) at about 670 nm (due to binding of allophycocyanin (APC)-conjugated (Fab)₂ goat anti-human IgG Fc-specific secondary antibody).
Some of the anti-SIRPα antibodies were tested in vitro for binding to primary T cells and monocytes in peripheral blood mononuclear cells (PBMCs). Briefly, PBMCs that expressed only SIRPα V2 were seeded in 96-well microtiter plates. Serial dilutions of anti-SIRPα antibodies were incubated with the cells on ice for 30 minutes. […] The cells were then subjected to FACs. T cells were gated based on their anti-CD4 or anti-CD8 binding (detected by FITC fluorescence), since T cells commonly express either CD4 or CD8. Monocytes were gated based on their forward scatter/side scatter (FSC/SSC) profile, since a characteristic FSC/SSC profile can identify monocytes. See, e.g., Marimuthu et al., Characterization of human monocytes subsets by whole blood flow cytometry analysis, J. Vis. Exp. (140), e57941, doi:10.3791/57941 (2018). The binding of anti-SIRPα antibodies to each population was reported as a mean fluorescence intensity (MFI) of the APC channel (670 nm).
In general terms: Flow cytometry measures light scatter and fluorescence of single cells or particles in a stream.

Assay [7] addresses T6, hSIRPαV2 expressed on the cell surface. In words: FACS competition: inhibition of biotinylated hCD47:Fc (2.5 µg/ml) binding to EXPI293 cells expressing hSIRPαV2, FIG. 5A. The procedure: (§4) The x axes show the antibody concentration in μg/ml. The y axes show mean fluorescence intensity (MFI) at about 572 nm.
(§5) Some of the anti-SIRPα antibodies described above were tested in vitro for their ability to inhibit binding of CD47 to hSIRPαV1 or hSIRPαV2 expressed on the surface of EXPI293™ cells stably transfected with DNA encoding these proteins. Briefly, stable transfectants expressing hSIRPαV1 or hSIRPαV2 were seeded into 96-well microtiter plates. […] After 30 minutes incubation, cells were washed, streptavidin-phycoerythrin (streptavidin-PE) was added, and cells were subjected to FACS to detect bound hCD47:Fc. Results were reported as a mean fluorescence intensity (MFI) using FlowJo software (FLOWJO, L.L.C., Ashland, Oreg., USA). FIGS. 4 and 5 show the MFI detected on the y axes of both panels and the antibody concentration on the x axes of both panels.

In assay [8] the target is T7, hSIRPαV1 expressed on the cell surface (human, UniProt P78324 31-504).
T7 construct: also called human SIRPα variant V1
In words: FACS competition on EXPI293 cells stably expressing hSIRPαV1: biotinylated hCD47:Fc (2.5 µg/ml) mixed with serial dilutions of the antibody, bound hCD47:Fc detected with streptavidin-PE (MFI); blocked ligand: hCD47:Fc. The procedure:
as §4, §5

Assay [9] concerns the target T8, cSIRPαV2D1 with histidine tag (cynomolgus monkey (Macaca fascicularis), UniProt Q5TFQ8 30-146 (human entry)).
T8 construct: also called cynomolgus monkey SIRPαV2D1; not shown: histidine tag
T8 chain: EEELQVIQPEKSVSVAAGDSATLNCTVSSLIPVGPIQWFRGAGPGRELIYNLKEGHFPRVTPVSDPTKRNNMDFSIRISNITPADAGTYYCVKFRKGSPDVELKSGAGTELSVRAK
The assay is described as follows: SPR (Biacore 3000), IgG captured on anti-human IgG, His-tagged D1 analyte.
Source text: as §1, §2, §3

Assay [10] concerns the target T6, hSIRPαV2 expressed on the cell surface. The assay is described as follows: FACS competition on EXPI293 cells stably expressing hSIRPαV2: biotinylated hCD47:Fc (2.5 µg/ml) mixed with serial dilutions of the antibody, bound hCD47:Fc detected with streptavidin-PE (MFI); blocked ligand: hCD47:Fc. The procedure: The x axes show the antibody concentration in μg/ml. The y axes show mean fluorescence intensity (MFI) at about 572 nm (due to binding of biotinylated CD47:Fc, detected by a streptavidin-phycoerythrin conjugate).
as §5

B1: Ab24_G4 (antibody, human IgG4 S228P, kappa)
heavy: not shown
light: DIVLTQSPASLAVSLGERATISCRASESVDLYGTSFMHWYQQKPGQPPKLLIYRASNLESGVPDRFSGSGSRTDFTLTINPLQAEDVATYYCHQSSDELPWTFGGGTKVEIKRTVAAPSVFIFPPSDEQLKSGTASVVCLLNNFYPREAKVQWKVDNALQSGNSQESVTEQDSKDSTYSLSSTLTLSKADYEKHKVYACEVTHQGLSSPVTKSFNRGEC
notes: human IgG4 format
In general, Kd refers to the free concentration of one partner at which half of the binding sites on the other are occupied at equilibrium, for simple one-to-one binding. By EC50 (read off the curve) is commonly meant the concentration at which the effect is half-maximal. In the case of B1, the Kd in assay [1] is 21.4 nM; in [2] it was 0.956 nM; in [3], 8.59 nM; in assay [4], 0.217 nM; in assay [5], 140 nM. Further, the half-maximal effective concentration (EC50 (read off the curve)) in assay [6] is roughly 0.03 µg/mL.

B2: Ab24_G2 (antibody, human IgG2, kappa)
heavy: EVQLVESGGGLVKPGGSLRLSCAASGFTFSSYVMSWVRQTPGKGLEWVATISSGGTYTYYPDSVKGRFTLSRDNAKNSLYLQMNSLRAEDTAVYYCASQLTGSEFDYWGQGTTVTVSSASTKGPSVFPLAPCSRSTSESTAALGCLVKDYFPEPVTVSWNSGALTSGVHTFPAVLQSSGLYSLSSVVTVPSSNFGTQTYTCNVDHKPSNTKVDKTVERKCCVECPPCPAPPVAGPSVFLFPPKPKDTLMISRTPEVTCVVVDVSHEDPEVQFNWYVDGVEVHNAKTKPREEQFNSTFRVVSVLTVVHQDWLNGKEYKCKVSNKGLPAPIEKTISKTKGQPREPQVYTLPPSREEMTKNQVSLTCLVKGFYPSDIAVEWESNGQPENNYKTTPPMLDSDGSFFLYSKLTVDKSRWQQGNVFSCSVMHEALHNHYTQKSLSLSPGK
light: DIVLTQSPASLAVSLGERATISCRASESVDLYGTSFMHWYQQKPGQPPKLLIYRASNLESGVPDRFSGSGSRTDFTLTINPLQAEDVATYYCHQSSDELPWTFGGGTKVEIKRTVAAPSVFIFPPSDEQLKSGTASVVCLLNNFYPREAKVQWKVDNALQSGNSQESVTEQDSKDSTYSLSSTLTLSKADYEKHKVYACEVTHQGLSSPVTKSFNRGEC
notes: like Ab24_G4 but with an IgG2 HC; also called Ab24_IgG2
Broadly, the IC50 is the concentration at which inhibition is half-maximal. As to B2, the IC50 in [7] was found to be 0.22 µg/mL. For the same molecule, the “IC50 (read off the curve)” value in assay [8] was roughly 0.4 µg/mL.

B3: Ab24_4422 PA (antibody, human IgG4 S228P, kappa)
heavy: EVQLVESGGGLVKPGGSLRLSCAASGFTFSSYVMSWVRQTPGKGLEWVATISSGGTYTYYPDSVKGRFTLSRDNAKNSLYLQMNSLRAEDTAVYYCASQLTGSEFDYWGQGTTVTVSSASTKGPSVFPLAPCSRSTSESTAALGCLVKDYFPEPVTVSWNSGALTSGVHTFPAVLQSSGLYSLSSVVTVPSSSLGTKTYTCNVDHKPSNTKVDKRVESKYGPPCPPCPAPPVAGPSVFLFPPKPKDTLMISRTPEVTCVVVDVSHEDPEVQFNWYVDGVEVHNAKTKPREEQFNSTFRVVSVLTVVHQDWLNGKEYKCKVSNKGLAAPIEKTISKTKGQPREPQVYTLPPSREEMTKNQVSLTCLVKGFYPSDIAVEWESNGQPENNYKTTPPMLDSDGSFFLYSKLTVDKSRWQQGNVFSCSVMHEALHNHYTQKSLSLSPGK
light: DIVLTQSPASLAVSLGERATISCRASESVDLYGTSFMHWYQQKPGQPPKLLIYRASNLESGVPDRFSGSGSRTDFTLTINPLQAEDVATYYCHQSSDELPWTFGGGTKVEIKRTVAAPSVFIFPPSDEQLKSGTASVVCLLNNFYPREAKVQWKVDNALQSGNSQESVTEQDSKDSTYSLSSTLTLSKADYEKHKVYACEVTHQGLSSPVTKSFNRGEC
Consider B3, for which the IC50 in [7] was 0.17 µg/mL. Further, in [8], the “IC50 (read off the curve)” value was roughly 0.3 µg/mL.

B4: Ab11_G4 (antibody, human IgG4 S228P, kappa, V domains shown)
VH: EVQLVESGGGLVKPGGSLRLSCAASGFTFSSYVMSWVRQTPGKGLEWVATISSGGTYTYYPDSVKGRFTLSRDNAKNSLYLQMNSLRAEDTAVYYCASQLTGSEFDYWGQGTTVTVSS
VL: DIVITQSPASLAVSLGERATISCRASESVDSYGNSFMHWYQQKPGQPPKLLIYRASNLESGVPDRFSGSGSRTDFTLTINPLQAEDVATYYCHQSGDLPWTFGGGTKVEIKR
notes: human IgG4 format
Regarding B4, the Kd in [1] is 231 nM; in assay [2], 3.09 nM; in assay [3], 127 nM; in [9], roughly 519 nM; in assay [4], 11.1 nM; in assay [5], roughly 7310 nM. Also, in assay [6], the “EC50 (read off the curve)” value is roughly 0.06 µg/mL. Besides, the “IC50 (read off the curve)” value in [10] was roughly 0.3 µg/mL.

The values are drawn from US20220235144A1 (QILU PUGET SOUND BIOTHERAPEUTICS, published 2022).
